# Values joined by “and” are separate entries in the source; they are usually repeats but may differ in a detail not shown here. Identical values can stand only once.
# Key:
# [1] = target: the molecule itself; assay: dynamic light scattering; DynaPro instrument, room temperature, EvpC at 6 mg/ml; polydispersity 5%
# [2] = target: the molecule itself; assay: AUC; sedimentation velocity, ~2 mg/ml (methods: 2.5 mg/ml), 10 mM Tris-HCl pH 7.0, 200 mM NaCl, with and without DTT, 40,000 rpm, 20°C, absorbance at 280 nm, Sedfit; self-association, dimer and hexamer
# [3] = target: the molecule itself; assay: SEC; gel filtration (Hiload 16/60 Superdex 75) of EvpC wild type and mutants at 2 mg/ml; self-association, hexamer
Protein,stoichiometry N [1],stoichiometry N [2],stoichiometry N [3]
"EvpC from Edwardsiella tarda PPD130/91, wild type, recombinant with 6His tag at C terminus (pETMevpC) (natural protein, selenomethionine (cells grown in defined M9 medium supplemented with 25 mg/L SelMet), EvpC, Hcp homolog of the type VI secretion system (EVP cluster), Edwardsiella tarda PPD130/91; evpC gene amplified from genomic DNA; crystal model holds Ala2 to Lys163; K161-K163 are called the C-terminal residues and the model ends at Lys163, so the whole protein (163 residues) is likely. pETM is a pET32 derivative; no other vector-derived residues are told; also called wild type EvpC; Hcp …) MAFDTYIKLDKVDGESTDDKHKKWIEVLGFAWGAGNECTMESGTQGLNTGKAMMSVLRVTKWMDCASVKLASAAVQGQNFPTLELEICTQAGDKFAFCIYKFTHVAVSSYQCSGATGGSDRPQETIDFAYKEVTWEYVPQDQNGKAGGKIGPEGWSLITNKKK",12,2 and 6,–
"EvpC D4A E26A double mutant, 6His tag at C terminus (pETMevpC D4AE26A) (natural protein, EvpC, Edwardsiella tarda PPD130/91, with D4 and E26 substituted with Ala; The text speaks only of 'double' mutants for the gel filtration; source: expressed (pETM plasmid)) MAFATYIKLDKVDGESTDDKHKKWIAVLGFAWGAGNECTMESGTQGLNTGKAMMSVLRVTKWMDCASVKLASAAVQGQNFPTLELEICTQAGDKFAFCIYKFTHVAVSSYQCSGATGGSDRPQETIDFAYKEVTWEYVPQDQNGKAGGKIGPEGWSLITNKKK",–,–,6
"EvpC D4A E15A E26A triple mutant (natural protein, EvpC, Edwardsiella tarda PPD130/91, with D4, E15 and E26 substituted with Ala; also called N-terminal triple mutant; N-terminal mutant; source: expressed) MAFATYIKLDKVDGASTDDKHKKWIAVLGFAWGAGNECTMESGTQGLNTGKAMMSVLRVTKWMDCASVKLASAAVQGQNFPTLELEICTQAGDKFAFCIYKFTHVAVSSYQCSGATGGSDRPQETIDFAYKEVTWEYVPQDQNGKAGGKIGPEGWSLITNKKK",–,–,6
"EvpC D4A E15A double mutant, 6His tag at C terminus (pETMevpC D4AE15A) (natural protein, EvpC, Edwardsiella tarda PPD130/91, with D4 and E15 substituted with Ala; The text speaks only of 'double' mutants for the gel filtration; source: expressed (pETM plasmid)) MAFATYIKLDKVDGASTDDKHKKWIEVLGFAWGAGNECTMESGTQGLNTGKAMMSVLRVTKWMDCASVKLASAAVQGQNFPTLELEICTQAGDKFAFCIYKFTHVAVSSYQCSGATGGSDRPQETIDFAYKEVTWEYVPQDQNGKAGGKIGPEGWSLITNKKK",–,–,6
"EvpC E15A E26A double mutant, 6His tag at C terminus (pETMevpC E15AE26A) (natural protein, EvpC, Edwardsiella tarda PPD130/91, with E15 and E26 substituted with Ala; The text speaks only of 'double' mutants for the gel filtration; source: expressed (pETM plasmid)) MAFDTYIKLDKVDGASTDDKHKKWIAVLGFAWGAGNECTMESGTQGLNTGKAMMSVLRVTKWMDCASVKLASAAVQGQNFPTLELEICTQAGDKFAFCIYKFTHVAVSSYQCSGATGGSDRPQETIDFAYKEVTWEYVPQDQNGKAGGKIGPEGWSLITNKKK",–,–,6
"EvpC C-terminal deletion mutant (EvpC M1-N160), K161 K162 K163 deleted (domain or fragment, EvpC, Edwardsiella tarda PPD130/91, residues M1-N160, lacking the C-terminal K161, K162 and K163; also called EvpC 1-160; C-terminal mutant; source: expressed) MAFDTYIKLDKVDGESTDDKHKKWIEVLGFAWGAGNECTMESGTQGLNTGKAMMSVLRVTKWMDCASVKLASAAVQGQNFPTLELEICTQAGDKFAFCIYKFTHVAVSSYQCSGATGGSDRPQETIDFAYKEVTWEYVPQDQNGKAGGKIGPEGWSLITN",–,–,6

# Reference: article PMC2944823, “Structural Basis for the Secretion of EvpC: A Key Type VI Secretion System Protein from Edwardsiella tarda” (PLoS ONE, 2010)
